Experimental findings from patent US20230408517A1 (BIO TECHNE, published 2023) are described below.

The target in test [1] is T1, recombinant his-tagged homotrimeric SARS-CoV-2 spike protein (SARS-CoV-2, UniProt P0DTC2 16-1211). In words: flow cytometry, blocking of binding to hACE-2 cells. A general note: A flow cytometer gives signals particle by particle.
The target in test [2] is T2, SARS-CoV spike RBD (R306-F527), C-terminal 6-His (SARS-CoV, UniProt P59594 306-527). In words: antigen-down ELISA, coated SARS-CoV-1 S1 RBD titrated, Ab 1 µg/mL. (In an ELISA, binding on a coated surface is turned into a signal by an enzyme label.)
The target of another test is T3, BSA (bovine, UniProt P02769).
T3 construct: also called bovine serum albumin
T3 sequence (P02769 25-607 limits assumed): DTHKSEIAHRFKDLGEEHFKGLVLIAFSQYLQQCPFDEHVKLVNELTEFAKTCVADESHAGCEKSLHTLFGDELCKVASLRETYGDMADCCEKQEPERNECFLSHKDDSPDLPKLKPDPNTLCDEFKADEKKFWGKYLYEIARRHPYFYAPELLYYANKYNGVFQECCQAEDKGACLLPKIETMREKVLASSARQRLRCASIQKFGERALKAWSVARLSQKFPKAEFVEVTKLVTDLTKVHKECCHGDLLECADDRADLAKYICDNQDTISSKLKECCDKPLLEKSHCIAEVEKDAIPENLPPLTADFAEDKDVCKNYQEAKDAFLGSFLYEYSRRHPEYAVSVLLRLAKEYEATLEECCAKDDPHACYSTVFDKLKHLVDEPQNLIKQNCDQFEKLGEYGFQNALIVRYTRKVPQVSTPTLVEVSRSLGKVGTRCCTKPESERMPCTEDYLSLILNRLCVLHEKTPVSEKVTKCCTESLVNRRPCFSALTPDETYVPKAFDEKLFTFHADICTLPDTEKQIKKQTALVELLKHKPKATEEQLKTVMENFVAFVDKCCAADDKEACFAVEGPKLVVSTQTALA
In words: dipstick, adsorbed protein spots, Ab 10 µg/mL, GAM-AuNP.

In test [3] the target is T2, SARS-CoV spike RBD (R306-F527), …. Nature of the test: flow cytometry, blocking of binding to hACE-2 cells.
Test [4] concerns the target T4, recombinant monomeric SARS-CoV-1 S1 protein (SARS-CoV-1, UniProt P59594 14-667). The test is described as above.
Test [5] deals with T1, recombinant his-tagged homotrimeric …. The test is described as above. This is another data set of the same source.
For test [6], the target named is T2, SARS-CoV spike RBD (R306-F527), …. Described as above. The source holds these as a separate data set.
Test [7] addresses T4, recombinant monomeric SARS-CoV-1 S1 …. Described as above. The source holds these as a separate data set.
Test [8] deals with T5, recombinant monomeric SARS-CoV-2 S1 protein, his-tagged (SARS-CoV-2, UniProt P0DTC2 16-681).
T5 construct: domain: S1
The description is as above.

For test [9], the target named is T5, recombinant monomeric SARS-CoV-2 S1 …. The description is as above. The source holds these as a separate data set.
Test [10] addresses T4, recombinant monomeric SARS-CoV-1 S1 …. In words: antigen-down ELISA, coated SARS-CoV-1 S1 titrated, Ab 1 µg/mL.

Where two headings read alike, the source gives them in different places.

B1: 1035762 (antibody, V domains shown)
VH: EVQLQQSGPELVKPGASVKISCKTSGYTFTEYTMHWVKQSHGKSLEWIGGINPNNGDTGYNQKFKGKATLTVDKSSSTAYMELRSLTFEDSAVYYCARDGYPLYYAMDYWGQGTSVTVSS
VL: DIQMTQSPSSLSASLGERVSLTCRASQEISGYLCWLQQKPDGTIKRLIYAASTLDSAVPKRFSGSRSGSDYSLTISSLESEDFADFYCLQYASYPWTFGGGTKLEIK
For the molecule B1, the percent blocking is 93% in test [1]; 0% in [3]; 0% in test [4]; 93% in [5]; 0% in [6]; 0% in test [7]. Also, the percent blocking in test [8] and in [9] was 93.2% throughout. The binding result is given as “no binding (tested: 400 ng coated (axis))” in [2], “no binding (tested: 10 µg/mL)” in the test with BSA and “no binding (tested: 400 ng coated (axis))” in test [10].
